Laboratory results from patent publication US11306331B2, “Processes for the production of hydroxycinnamic acids using polypeptides having tyrosine ammonia lyase activity” (CysBio ApS, priority 2014, dated 2022).

Tests used:
[1] = substrate: N[C@@H](Cc1ccccc1)C(=O)O; assay: In vitro kinetics of purified His-tagged SeSam8 (tyrosine/phenylalanine ammonia lyase activity, absorbance at 315/295 nm); type: biochemical, Saccharothrix espanaensis; settings: other: SeSam8, 30° C, 1.56 μM to 200 μM tyrosine or 193 μM to 25 mM phenylalanine, pH 7.5
Description: (§1) Four of the enzymes were further purified by His-tag purification as follows. A DNA linker (5′ phosphorylated oligonucleotides CBJP559 and CBJP560, Table 5) was inserted in place of the sequence between the NdeI and BgIII site in plasmid pCDFDuet-1. This would result in the addition of the amino acids MAHHHHHHENLYFQ (SEQ ID NO: 11) to the N-terminal end of the polypeptides. The resulting plasmid was amplified with primers CBJP575 and CBJP576 (table 5) and the genes were amplified and combined using the Gibson reaction (New England Biolabs). The PCR amplification used the same reverse primers as in example 1, but the forward primers matching the His-tag site of the linker (Table 5). Plasmids carrying the genes (e.g. FjXAL, FIG. 4) were transformed into electrocompetent E. coli BL21(DE3)pLysS cells (Life Technologies) and selected on LB plates containing 50 ug/mL streptomycin.
(§2) Strains expressing His-tagged versions of the enzymes were grown in LB media overnight at 37° C. and diluted into fresh LB media with 1 mM IPTG and growth was propagated overnight (approximately 18 h) at 30° C. Cells were harvested by centrifugation at 8000 rpm for 8 minutes, and disrupted by shearing into a buffer (50 mM Tris-HCl, 10 mM imidazole, 500 mM NaCl, 10% glycerol, pH 7.5). The homogenate was clarified by centrifugation at 10000 g for 10 min at 4° C., and the supernatant was loaded onto Ni2+-NTA resin column on an Äkta Pure system connected to a F9-C fraction collector (GE). Finally the fractions containing the purified polypeptide was dialyzed overnight against a buffer containing 50 mM Tris-HCl pH 7.5, 150 mM NaCl and 10% glycerol, flash-frozen in liquid nitrogen and stored at −80° C.
(§3) Enzymatic assays were performed in 200 μL volumes in wells in a UV transparent 96-well plate, by following the increase in absorbance at 315 nm (pHCA) or 295 nm (CA). […] The enzymatic activity was calculated as U/g, where U is defined as μmol substrate converted per minute.

[2] = substrate: N[C@@H](Cc1ccc(O)cc1)C(=O)O; assay: as above; type: biochemical, Saccharothrix espanaensis; settings: other: SeSam8, 30° C, 1.56 μM to 200 μM tyrosine or 193 μM to 25 mM phenylalanine, pH 7.5
Description: as §1, §2, §3

[3] = substrate: N[C@@H](Cc1ccccc1)C(=O)O; assay: In vitro kinetics of purified His-tagged HaXAL1 (tyrosine/phenylalanine ammonia lyase activity, absorbance at 315/295 nm); type: biochemical, Herpetosiphon aurantiacus; settings: other: HaXAL1, 30° C, 1.56 μM to 200 μM tyrosine or 193 μM to 25 mM phenylalanine, pH 7.5
Method: (§4) The tyrosine ammonia lyase activity may for instance be determined in accordance to the following method: Enzymatic assays are performed in 200 μL volumes in wells in a UV transparent 96-well plate, by following the increase in absorbance at 315 nm (pHCA) using spectrophotometry or HPLC with UV detection. The reaction mixtures contain 2 μg of purified protein and are initiated by adding 1 mM tyrosine or 6 mM after equilibration to 30° C. The enzymatic activity is calculated as U/g, where U is defined as μmol substrate converted per minute. Negative controls contain no purified protein. Kinetic constants Km and vmax are determined from assays containing 1.56 μM to 200 μM tyrosine. See also Kyndt et al. (2002).
as §1, §2, §3

[4] = substrate: N[C@@H](Cc1ccc(O)cc1)C(=O)O; assay: as above; type: biochemical, Herpetosiphon aurantiacus; settings: other: HaXAL1, 30° C, 1.56 μM to 200 μM tyrosine or 193 μM to 25 mM phenylalanine, pH 7.5
Method: as §4, §1, §2, §3

[5] = system: Saccharomyces cerevisiae CEN.PK102-5B; assay: Specific production of pHCA and CA by S. cerevisiae expressing TAL enzymes; type: cell-based; settings: 72 h, 30° C., +/- standard deviation
Description: A number of the previously characterized enzymes were characterized when expressed in Saccharomyces cerevisiae. Genes encoding HaXAL1 and FjXAL were synthesized with codon optimization for S. cerevisiae available by GeneArt (Life Technologies), and were named HaXAL1 Sc and FjXALSc. Genes were amplified using the oligonucleotide (refer to specific name) shown in Table 6, and inserted by uracil-excision into the vector pCfB132 together with the PPGK1 promoter amplified by primers PPGK1_fw and PPGK1_rv (Jensen et al., 2014). The finished plasmids were transformed into Saccharomyces cerevisiae CEN.PK102-5B (MAT a ura3-52 his3Δ1 leu2-3/112 MAL2-8c SUC2) using a standard lithium acetate transformation protocol and selected for on synthetic drop-out media plates lacking uracil.
Cells were grown in SC medium without uracil, and diluted into Delft medium or Feed-In-Time (FIT) medium (m2p-labs) supplemented with leucine and histidine. After 72 h of incubation at 30° C. with shaking, samples were taken for the analysis of optical density at 600 nm and for clarification of the supernatant, which was analyzed by HPLC as described in example 1. The specific production was calculated as micromolar (μM) concentration per unit of optical density of the culture at 600 nm and is shown in Table 4.

[6] = system: E. coli BL21(DE3)pLysS cells; assay: Specific production of pHCA and CA by E. coli expressing TAL/PAL enzymes; type: cell-based, Escherichia coli; settings: 24 h after supplementation, +/- standard deviation
Method: Plasmids carrying the genes were transformed into electrocompetent E. coli BL21(DE3)pLysS cells (Life Technologies) and selected on LBplates containing 50 ug/mL streptomycin. The strains were grown in M9 minimal media containing glucose as a carbon source, and expression was induced by adding 1 mM IPTG at an optical density at 600 nm of 0.6. After three hours of growth at 30° C. the cultures were supplemented with 2 mM tyrosine, phenylalanine or histidine. After further 24 hours, samples were withdrawn for determination of the optical density at 600 nm and for the isolation of the supernatant.
The concentration of pHCA and CA in the supernatant was quantified by high performance (HPLC) and compared to chemical standards. HPLC was done on a Thermo setup using a HS-F5 column and mobile phases: 5 mM ammonium formate pH 4.0 (A) and acetonitrile (B) at 1.5 mL min-1, using a gradient elution starting at 5% B. From 0.5 min after injection to 7 min, the fraction of B increased linearly from 5% to 60%, and between 9.5 min and 9.6 the fraction of B decreased back to 5%, and remaining there until 12m pHCA and CA were quantified by measuring absorbance at 333 nm and 277 nm, respectively. The production was tested without addition of precursors or the addition of either phenylalanine or tyrosine to the growth medium.
The specific production was calculated as micromolar (μM) concentration per unit of optical density of the culture at 600 nm, and standard deviations were calculated based on triplicate experiments. HaXAL1, HaXAL2 and FjXAL are the most specific enzymes and those that reach the highest yields.

[7] = system: E. coli BL21(DE3)pLysS cells; assay: Titers of hydroxycinnamic acids in supernatants of E. coli cultures expressing TAL homologs; type: cell-based, Escherichia coli; settings: 16 hours, 37° C., duplicate
Method: E. coli strains described in Example 1 were used. M9 medium with 0.2% glucose and 0.5 mM IPTG also containing either tyrosine (204 μM), L-dopa (194 μM) or 3-O-methyldopa (262 μM) was transferred as 3-mL aliquots into a 24-well deep-well plate (Enzyscreen). Aliquots were taken for HPLC before the wells were inoculated with 200 μL of overnight cultures of the strains. The plates were placed at 37° C. with shaking for 16 hours. Samples of the supernatant were withdrawn after two rounds of centrifugation. The samples were subjected to HPLC along with chemical standards as described in Example 1. p-coumaric acid, caffeic acid and ferulic acid was measured by absorbance at 333 nm. Tyrosine, L-dopa and 3-O-methyldopa were measured by fluorescence (excitation at 274 nm, emission at 303 nm).
There was no measurable product in the medium before inoculation.

[8] = substrate: N[C@@H](Cc1ccccc1)C(=O)O; assay: purified protein, by the assay type; settings: other: RsTAL, 30° C, 1.56 μM to 200 μM tyrosine or 193 μM to 25 mM phenylalanine, pH 7.5
Method: (§5) Enzymatic assays were performed in 200 μL volumes in wells in a UV transparent 96-well plate, by following the increase in absorbance at 315 nm (pHCA) or 295 nm (CA). The reaction mixtures contained 2 μg of purified protein and were initiated by adding 1 mM tyrosine or 6 mM after equilibration to 30° C. The enzymatic activity was calculated as U/g, where U is defined as μmol substrate converted per minute.

[9] = substrate: N[C@@H](Cc1ccc(O)cc1)C(=O)O; assay: purified protein, by the assay type; settings: other: RsTAL, 30° C, 1.56 μM to 200 μM tyrosine or 193 μM to 25 mM phenylalanine, pH 7.5
Method: as §5

B1: Saccharothrix espanaensis SeSam8 (Protein GI 433607630), His-tagged (N-terminal tag SEQ ID NO: 11) (Saccharothrix espanaensis) (protein)
chain: MTQVVERQADRLSSREYLARVVRSAGWDAGLTSCTDEEIVRMGASARTIEEYLKSDKPIYGLTQGFGPLVLFDADSELEQGGSLISHLGTGQGAPLAPEVSRLILWLRIQNMRKGYSAVSPVFWQKLADLWNKGFTPAIPRHGTVSASGDLQPLAHAALAFTGVGEAWTRDADGRWSTVPAVDALAALGAEPFDWPVREALAFVNGTGASLAVAVLNHRSALRLVRACAVLSARLATLLGANPEHYDVGHGVARGQVGQLTAAEWIRQGLPRGMVRDGSRPLQEPYSLRCAPQVLGAVLDQLDGAGDVLAREVDGCQDNPITYEGELLHGGNFHAMPVGFASDQIGLAMHMAAYLAERQLGLLVSPVTNGDLPPMLTPRAGRGAGLAGVQISATSFVSRIRQLVFPASLTTLPTNGWNQDHVPMALNGANSVFEALELGWLTVGSLAVGVAQLAAMTGHAAEGVWAELAGICPPLDADRPLGAEVRAARDLLSAHADQLLVDEADGKDFG
What does the source list for B1?
Km [1]: 2200 µM; kcat [1]: 0.00883 s⁻¹; kcat/Km [1]: 4.03 M⁻¹ s⁻¹; Km [2]: 4.8 µM

B2: Herpetosiphon aurantiacus HaXAL1 tyrosine ammonia lyase (Protein GI 159898407), SEQ ID NO: 2, His-tagged (N-terminal tag SEQ ID NO: 11) (Herpetosiphon … (protein)
chain: MSTTLILTGEGLGIDDVVRVARHQDRVELTTDPAILAQIEASCAYINQAVKEHQPVYGVTTGFGGMANVIISPEEAAELQNNAIWYHKTGAGKLLPFTDVRAAMLLRANSHMRGASGIRLEIIQRMVTFLNANVTPHVREFGSIGASGDLVPLISITGALLGTDQAFMVDFNGETLDCISALERLGLPRLRLQPKEGLAMMNGTSVMTGIAANCVHDARILLALALEAHALMIQGLQGTNQSFHPFIHRHKPHTGQVWAADHMLELLQGSQLSRNELDGSHDYRDGDLIQDRYSLRCLPQFLGPIIDGMAFISHHLRVEINSANDNPLIDTASAASYHGGNFLGQYIGVGMDQLRYYMGLMAKHLDVQIALLVSPQFNNGLPASLVGNIQRKVNMGLKGLQLTANSIMPILTFLGNSLADRFPTHAEQFNQNINSQGFGSANLARQTIQTLQQYIAITLMFGVQAVDLRTHKLAGHYNAAELLSPLTAKIYHAVRSIVKHPPSPERPYIWNDDEQVLEAHISALAHDIANDGSLVSAVEQTLSGLRSIILFR
With B2 as the molecule, how does the Km [3] read?
The Km was 22000 µM.

And the kcat [3]?
The kcat was 0.128 s⁻¹.

What about the kcat/Km [3] of the same molecule?
The kcat/Km was 6.1 M⁻¹ s⁻¹.

And the Km [4]?
The Km was 16 µM.

And the “Specific production of CA” value ([5]; Delft + Tyr (10 mM))?
Its value is 0 ± 0 μM OD600-1.

What about the “Specific production of pHCA” value ([5]; Delft + Tyr (10 mM)) of the same molecule?
Its value is 110 ± 15 μM OD600-1.

And the “Specific production of CA” value ([5]; Delft medium)?
The value was 0 ± 0 μM OD600-1.

What about the “Specific production of pHCA” value ([5]; Delft medium) of the same molecule?
Its value is 31 ± 3.2 μM OD600-1.

And the “Specific production of CA” value ([5]; FIT + Tyr (10 mM))?
The value was 0 ± 0 μM OD600-1.

What about the “Specific production of pHCA” value ([5]; FIT + Tyr (10 mM)) of the same molecule?
Its value is 120 ± 10 μM OD600-1.

What about the “Specific production of CA” value ([5]; FIT medium) of the same molecule?
The value was 0 ± 0 μM OD600-1.

What about the “Specific production of pHCA” value ([5]; FIT medium) of the same molecule?
The value was 140 ± 13 μM OD600-1.

And the “Specific production of CA” value ([6]; M9 + Phe (2 mM))?
Its value is 1.1 ± 0.2 μM OD600-1.

And the “Specific production of pHCA” value ([6]; M9 + Phe (2 mM))?
The value was 36 ± 14 μM OD600-1.

And the “Specific production of CA” value ([6]; M9 + Tyr (2 mM))?
Its value is 0 ± 0 μM OD600-1.

What about the “Specific production of pHCA” value ([6]; M9 + Tyr (2 mM)) of the same molecule?
The value was 130 ± 26 μM OD600-1.

And the “Titer of ferulic acid” value ([7]; M9 + 3-O-methyldopa (262 μM))?
The value was 0.6 ± 0.0 µM.

What about the “Titer of caffeic acid” value ([7]; M9 + L-dopa (194 μM)) of the same molecule?
Its value is 6.9 ± 1.3 µM.

And the “Titer of p-coumaric acid” value ([7]; M9 + tyrosine (204 μM))?
Its value is 81 ± 1.2 µM.

B3: Rhodobacter sphaeroides RsTAL (Protein GI 126464011), His-tagged (N-terminal tag SEQ ID NO: 11) (Cereibacter sphaeroides 2.4.1) (protein)
chain: MLAMSPPKPAVELDRHIDLDEAHSVASGGARIVLAPPARDRCRASEARLGAVIREARHVYGLTTGFGPLANRLVSGENVRTLQANLVHHLASGVGPVLDWTTARAMVLARLVAIAQGASGASEGTIARLIDLLNSELAPAVPMRGTVGASGDLTPLAHMVLCLQGRGDFLDRDGTRLDGAEGLRRGRLQPLDLSHRDALALVNGTSAMTGIALVNAHACRHLGNWAVALTALLAECLGGRTEAWAAALSDLRPHPGQKDAAARLRARVDGSARVVRHVIAERRLGASDIGTEPEAGQDAYSLRCAPQVLGAGFDTLAWHDRVLTIELNAVTDNPVFPPDGSVPALHGGNFMGQHVALTSDALATAVTVLAGLAERQIARLTDERLNRGLPPFLHRGPAGLNSGFMGAQVTATALLAEMRATGPASIHSISTNAANQDVVSLGTIAARLCREKIDRWAEILAILALCLAQAAELRCGSGLDGVSPAGKKLVQALREQFPPLETDRPLGQEIAALATHLLQQSPV
Which results are given for B3?
Km [8]: 2400 µM; kcat [8]: 0.0597 s⁻¹; kcat/Km [8]: 24.6 M⁻¹ s⁻¹; Km [9]: 5.6 µM
